{"source": "patent US7741283B2", "about": "“Compositions and methods for inhibiting cell proliferation” (St. Louis University, priority 2003, dated 2010)", "key": {"acidic pH binding sites [1]": {"molecular_target": "acidic pH binding sites (Neogale vison, UniProt A0A8C7BSJ2)", "sequence (A0A8C7BSJ2 entry or part of it)": "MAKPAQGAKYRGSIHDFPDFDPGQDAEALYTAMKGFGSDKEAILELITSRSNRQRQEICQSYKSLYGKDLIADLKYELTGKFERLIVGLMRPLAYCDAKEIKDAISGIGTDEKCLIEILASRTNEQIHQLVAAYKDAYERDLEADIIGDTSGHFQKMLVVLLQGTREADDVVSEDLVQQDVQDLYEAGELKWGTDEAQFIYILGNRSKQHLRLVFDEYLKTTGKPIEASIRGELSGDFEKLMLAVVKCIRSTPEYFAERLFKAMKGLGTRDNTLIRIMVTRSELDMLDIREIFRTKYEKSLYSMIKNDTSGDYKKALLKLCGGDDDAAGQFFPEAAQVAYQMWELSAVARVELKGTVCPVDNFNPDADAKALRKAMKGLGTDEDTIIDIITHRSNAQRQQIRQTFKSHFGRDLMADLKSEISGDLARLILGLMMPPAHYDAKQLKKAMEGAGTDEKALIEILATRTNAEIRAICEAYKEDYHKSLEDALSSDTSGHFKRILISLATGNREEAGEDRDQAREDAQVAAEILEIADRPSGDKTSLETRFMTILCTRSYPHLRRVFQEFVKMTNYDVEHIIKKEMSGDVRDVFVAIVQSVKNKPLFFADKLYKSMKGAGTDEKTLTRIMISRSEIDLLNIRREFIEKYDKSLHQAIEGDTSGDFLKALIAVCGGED", "assay": "Specific binding of 125I-ligands to Mv1Lu cells at acidic pH", "set-up": "species or system mink"}, "acidic pH binding sites [2]": {"molecular_target": "T1, acidic pH binding sites (Mus musculus, UniProt P14824)", "T1 sequence (P14824 2-673)": "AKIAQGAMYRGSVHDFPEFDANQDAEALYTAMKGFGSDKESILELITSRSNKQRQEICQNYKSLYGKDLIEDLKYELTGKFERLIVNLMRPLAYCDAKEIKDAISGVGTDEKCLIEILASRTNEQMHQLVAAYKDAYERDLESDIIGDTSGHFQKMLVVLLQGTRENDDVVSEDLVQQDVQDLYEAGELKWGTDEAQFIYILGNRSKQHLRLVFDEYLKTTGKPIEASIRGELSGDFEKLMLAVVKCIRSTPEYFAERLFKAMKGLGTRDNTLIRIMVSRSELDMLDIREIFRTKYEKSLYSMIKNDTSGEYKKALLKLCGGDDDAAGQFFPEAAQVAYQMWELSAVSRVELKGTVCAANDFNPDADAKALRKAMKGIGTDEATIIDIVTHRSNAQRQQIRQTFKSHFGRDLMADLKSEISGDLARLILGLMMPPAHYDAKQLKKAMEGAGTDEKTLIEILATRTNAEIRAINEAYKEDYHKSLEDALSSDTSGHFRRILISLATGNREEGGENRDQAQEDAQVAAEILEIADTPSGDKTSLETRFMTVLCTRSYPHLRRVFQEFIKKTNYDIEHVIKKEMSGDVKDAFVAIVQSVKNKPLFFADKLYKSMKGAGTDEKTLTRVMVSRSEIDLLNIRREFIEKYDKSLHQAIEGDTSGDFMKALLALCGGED", "assay": "Specific binding of 125I-ligands to MEF cells at acidic pH", "conditions": "10 μM protein, pH 5.5, MEF"}, "LRP-1 [3]": {"tested_on": "LRP-1", "assay": "125I-α2M* binding to Mv1Lu cells at pH 7.4", "set-up": "species or system mink", "conditions": "10 μM protein, pH 7.4, Mv1Lu"}, "LRP-1 [4]": {"molecular_target": "T2, LRP-1 (Mus musculus, UniProt Q91ZX7)", "T2 construct": "endogenous in cells; host or cells: MEF (mouse embryonic fibroblasts)", "T2 sequence (Q91ZX7 20-4545)": "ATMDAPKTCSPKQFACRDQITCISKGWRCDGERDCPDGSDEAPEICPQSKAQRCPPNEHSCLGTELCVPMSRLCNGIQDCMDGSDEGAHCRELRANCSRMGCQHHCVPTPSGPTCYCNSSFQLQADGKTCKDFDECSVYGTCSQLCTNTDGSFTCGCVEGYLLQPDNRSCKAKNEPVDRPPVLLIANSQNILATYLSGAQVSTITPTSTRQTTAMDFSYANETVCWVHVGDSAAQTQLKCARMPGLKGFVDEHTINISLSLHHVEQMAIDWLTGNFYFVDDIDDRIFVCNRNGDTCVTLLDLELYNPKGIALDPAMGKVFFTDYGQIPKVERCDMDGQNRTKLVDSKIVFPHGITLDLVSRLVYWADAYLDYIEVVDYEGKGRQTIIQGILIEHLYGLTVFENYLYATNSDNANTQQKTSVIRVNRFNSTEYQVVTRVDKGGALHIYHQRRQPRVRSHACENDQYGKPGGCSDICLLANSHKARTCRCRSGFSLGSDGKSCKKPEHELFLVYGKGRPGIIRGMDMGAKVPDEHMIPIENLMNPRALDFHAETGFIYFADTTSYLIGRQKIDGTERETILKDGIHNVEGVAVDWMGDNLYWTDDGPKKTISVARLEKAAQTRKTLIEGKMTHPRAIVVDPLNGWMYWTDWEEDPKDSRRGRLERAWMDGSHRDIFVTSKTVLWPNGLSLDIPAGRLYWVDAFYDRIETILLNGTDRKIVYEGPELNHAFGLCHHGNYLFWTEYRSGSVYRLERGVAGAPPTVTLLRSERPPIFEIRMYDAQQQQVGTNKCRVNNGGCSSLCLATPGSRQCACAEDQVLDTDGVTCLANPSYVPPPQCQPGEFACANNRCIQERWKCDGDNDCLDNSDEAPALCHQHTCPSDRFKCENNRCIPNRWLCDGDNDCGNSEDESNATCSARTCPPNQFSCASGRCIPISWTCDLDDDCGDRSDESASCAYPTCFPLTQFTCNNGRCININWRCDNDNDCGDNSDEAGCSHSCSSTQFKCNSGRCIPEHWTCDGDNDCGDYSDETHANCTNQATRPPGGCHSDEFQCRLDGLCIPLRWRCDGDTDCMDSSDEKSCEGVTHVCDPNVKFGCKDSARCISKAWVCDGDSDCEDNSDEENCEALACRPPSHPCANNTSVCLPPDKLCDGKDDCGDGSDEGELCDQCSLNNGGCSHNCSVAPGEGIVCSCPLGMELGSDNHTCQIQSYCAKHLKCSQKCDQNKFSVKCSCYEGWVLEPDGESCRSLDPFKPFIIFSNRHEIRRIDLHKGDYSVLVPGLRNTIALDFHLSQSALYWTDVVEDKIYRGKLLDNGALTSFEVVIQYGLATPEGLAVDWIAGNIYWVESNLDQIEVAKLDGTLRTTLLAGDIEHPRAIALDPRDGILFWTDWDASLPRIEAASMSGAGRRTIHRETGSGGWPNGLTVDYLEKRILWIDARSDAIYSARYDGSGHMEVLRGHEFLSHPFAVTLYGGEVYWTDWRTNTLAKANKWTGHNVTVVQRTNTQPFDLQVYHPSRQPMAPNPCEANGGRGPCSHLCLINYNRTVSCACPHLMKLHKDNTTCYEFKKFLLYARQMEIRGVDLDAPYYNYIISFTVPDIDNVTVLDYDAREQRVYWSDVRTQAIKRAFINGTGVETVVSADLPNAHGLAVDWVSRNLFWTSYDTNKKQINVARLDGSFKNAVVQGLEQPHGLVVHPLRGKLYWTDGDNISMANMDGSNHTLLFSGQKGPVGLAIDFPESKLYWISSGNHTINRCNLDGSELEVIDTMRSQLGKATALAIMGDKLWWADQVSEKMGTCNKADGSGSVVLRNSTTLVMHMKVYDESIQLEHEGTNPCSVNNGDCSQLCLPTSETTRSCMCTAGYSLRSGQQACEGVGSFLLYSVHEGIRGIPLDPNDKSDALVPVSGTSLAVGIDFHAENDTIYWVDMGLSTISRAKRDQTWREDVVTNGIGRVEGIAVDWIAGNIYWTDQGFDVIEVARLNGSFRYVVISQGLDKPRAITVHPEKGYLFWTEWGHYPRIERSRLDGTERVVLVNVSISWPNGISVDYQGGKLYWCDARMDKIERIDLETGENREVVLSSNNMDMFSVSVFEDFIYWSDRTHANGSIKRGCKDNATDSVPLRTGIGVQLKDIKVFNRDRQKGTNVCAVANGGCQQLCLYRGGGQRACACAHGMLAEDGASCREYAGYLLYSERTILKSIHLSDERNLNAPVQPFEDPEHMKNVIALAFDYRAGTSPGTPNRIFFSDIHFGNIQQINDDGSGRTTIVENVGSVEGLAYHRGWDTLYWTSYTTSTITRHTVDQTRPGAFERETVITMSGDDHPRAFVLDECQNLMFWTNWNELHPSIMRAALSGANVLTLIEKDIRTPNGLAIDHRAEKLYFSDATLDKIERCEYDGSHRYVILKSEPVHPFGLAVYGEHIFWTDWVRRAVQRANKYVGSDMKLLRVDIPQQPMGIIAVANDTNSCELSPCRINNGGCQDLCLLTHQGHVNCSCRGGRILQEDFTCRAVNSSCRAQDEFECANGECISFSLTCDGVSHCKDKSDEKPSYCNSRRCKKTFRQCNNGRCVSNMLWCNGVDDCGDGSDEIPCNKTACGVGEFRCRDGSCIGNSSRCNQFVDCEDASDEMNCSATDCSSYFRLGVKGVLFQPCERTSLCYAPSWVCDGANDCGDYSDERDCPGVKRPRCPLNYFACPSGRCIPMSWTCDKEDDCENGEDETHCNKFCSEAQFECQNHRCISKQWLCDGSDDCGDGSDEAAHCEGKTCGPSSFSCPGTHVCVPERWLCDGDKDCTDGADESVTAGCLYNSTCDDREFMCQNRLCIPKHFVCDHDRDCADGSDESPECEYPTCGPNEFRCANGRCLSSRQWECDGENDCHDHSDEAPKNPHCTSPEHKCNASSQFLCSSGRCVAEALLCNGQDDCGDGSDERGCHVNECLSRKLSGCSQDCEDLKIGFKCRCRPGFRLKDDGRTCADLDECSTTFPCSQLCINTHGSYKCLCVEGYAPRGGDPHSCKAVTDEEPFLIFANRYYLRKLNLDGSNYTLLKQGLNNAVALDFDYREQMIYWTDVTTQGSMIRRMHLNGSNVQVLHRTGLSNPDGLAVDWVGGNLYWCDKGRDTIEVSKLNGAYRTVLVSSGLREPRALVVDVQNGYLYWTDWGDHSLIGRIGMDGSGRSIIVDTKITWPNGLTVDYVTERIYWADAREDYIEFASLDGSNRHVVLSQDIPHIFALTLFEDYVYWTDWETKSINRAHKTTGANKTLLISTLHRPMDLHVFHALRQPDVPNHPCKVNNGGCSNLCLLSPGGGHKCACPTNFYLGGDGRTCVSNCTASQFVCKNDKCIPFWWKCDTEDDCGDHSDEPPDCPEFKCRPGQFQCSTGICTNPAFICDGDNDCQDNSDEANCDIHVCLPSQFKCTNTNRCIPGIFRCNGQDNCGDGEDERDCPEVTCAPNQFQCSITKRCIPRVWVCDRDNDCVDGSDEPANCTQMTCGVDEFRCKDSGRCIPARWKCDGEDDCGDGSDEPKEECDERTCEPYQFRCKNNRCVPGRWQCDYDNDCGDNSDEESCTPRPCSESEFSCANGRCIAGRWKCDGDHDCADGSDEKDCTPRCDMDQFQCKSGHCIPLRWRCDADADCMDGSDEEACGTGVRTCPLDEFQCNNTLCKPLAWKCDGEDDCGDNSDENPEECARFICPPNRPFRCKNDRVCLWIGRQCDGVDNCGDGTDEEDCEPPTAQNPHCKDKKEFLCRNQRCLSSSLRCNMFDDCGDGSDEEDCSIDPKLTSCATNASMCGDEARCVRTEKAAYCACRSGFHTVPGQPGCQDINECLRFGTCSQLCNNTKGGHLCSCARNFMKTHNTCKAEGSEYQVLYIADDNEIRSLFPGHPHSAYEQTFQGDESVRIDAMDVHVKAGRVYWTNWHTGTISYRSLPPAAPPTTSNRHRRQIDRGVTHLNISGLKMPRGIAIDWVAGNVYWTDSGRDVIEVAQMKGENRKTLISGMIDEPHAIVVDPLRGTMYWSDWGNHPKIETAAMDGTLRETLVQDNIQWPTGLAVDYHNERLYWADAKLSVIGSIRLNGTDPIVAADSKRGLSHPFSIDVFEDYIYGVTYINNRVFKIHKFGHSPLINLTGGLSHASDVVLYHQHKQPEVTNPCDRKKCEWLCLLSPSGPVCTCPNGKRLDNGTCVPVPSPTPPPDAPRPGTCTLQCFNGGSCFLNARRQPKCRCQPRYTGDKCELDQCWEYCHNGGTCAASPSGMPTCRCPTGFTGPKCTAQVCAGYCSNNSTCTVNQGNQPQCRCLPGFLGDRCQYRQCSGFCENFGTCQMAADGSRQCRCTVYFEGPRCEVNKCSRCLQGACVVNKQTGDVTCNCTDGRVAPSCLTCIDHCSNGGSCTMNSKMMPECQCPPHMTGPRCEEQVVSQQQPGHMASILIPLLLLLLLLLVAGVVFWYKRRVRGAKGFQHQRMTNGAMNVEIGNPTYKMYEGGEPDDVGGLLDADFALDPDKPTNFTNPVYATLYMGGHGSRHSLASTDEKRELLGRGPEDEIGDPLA", "assay": "125I-α2M* binding to MEF cells at pH 7.4", "conditions": "10 μM protein, pH 7.4, MEF"}, "[5]": {"tested_on": "TβR-V purified from bovine liver plasma membranes", "assay": "125I-IGFBP-3 / 125I-TGF-β1 affinity labeling of purified TβR-V", "assay_type": "binding", "conditions": "DSS, β1^25(41-65) 20 μM, RAP 10-40 μg/ml, α2M* 100 nM, lactoferrin 100 nM"}, "acidic pH binding sites [6]": {"molecular_target": "T1, acidic pH binding sites", "assay": "Specific binding of 125I-ligands to PEA-13 cells at acidic pH", "set-up": "endogenous in cells; host or cells: PEA-13 (LRP-1-deficient mouse embryonic fibroblasts)", "conditions": "10 μM protein, pH 5.5, PEA-13"}, "IRS-2": {"tested_on": "IRS-2", "assay": "32P metabolic labeling and immunoprecipitation of IRS-2, Mv1Lu cells", "assay_type": "cell-based, mink", "conditions": "Mv1Lu; for Induction of specific dephosphorylation (mobility change) of 32P-labeled IRS-2: IGFBPs 1 μg/ml, TGF-β1 20 pM"}, "Mv1Lu cells": {"tested_on": "Mv1Lu cells", "assay": "[methyl-3H] thymidine incorporation (DNA synthesis), Mv1Lu cells", "assay_type": "cell-based, mink", "conditions": "Mv1Lu cells"}}, "data": [{"molecule": "lactoferrin: bovine lactoferrin, an LRP-1 ligand (protein, UniProt P24627 20-708, looked up) Lactotransferrin: APRKNVRWCTISQPEWFKCRRWQWRMKKLGAPSITCVRRAFALECIRAIAEKKADAVTLDGGMVFEAGRDPYKLRPVAAEIYGTKESPQTHYYAVAVVKKGSNFQLDQLQGRKSCHTGLGRSAGWIIPMGILRPYLSWTESLEPLQGAVAKFFSASCVPCIDRQAYPNLCQLCKGEGENQCACSSREPYFGYSGAFKCLQDGAGDVAFVKETTVFENLPEKADRDQYELLCLNNSRAPVDAFKECHLAQVPSHAVVARSVDGKEDLIWKLLSKAQEKFGKNKSRSFQLFGSPPGQRDLLFKDSALGFLRIPSKVDSALYLGSRYLTTLKNLRETAEEVKARYTRVVWCAVGPEEQKKCQQWSQQSGQNVTCATASTTDDCIVLVLKGEADALNLDGGYIYTAGKCGLVPVLAENRKSSKHSSLDCVLRPTEGYLAVAVVKKANEGLTWNSLKDKKSCHTAVDRTAGWNIPMGLIVNQTGSCAFDEFFSQSCAPGADPKSRLCALCAGDDQGLDKCVPNSKEKYYGYTGAFRCLAEDVGDVAFVKNDTVWENTNGESTADWAKNLNREDFRLLCLDGTRKPVTEAQSCHLAVAPNHAVVSRSDRAAHVKQVLLHQQALFGKNGKNCPDKFCLFKSETKNLLFNDNTECLAKLGGRPTYEEYLGTEYVTAIANLKKCSTSPLLEACAFLTR", "values": [{"measurement": "Specific binding of ^125I-α2M*", "setting": "acidic pH binding sites [1]; 10 μM protein, pH 5.5, Mv1Lu", "value": "completely blocked"}, {"measurement": "IC50", "setting": "acidic pH binding sites [1]; Mv1Lu cells, pH 5 or 6, read-out: IC50, inhibition of ^125I-α2M* binding to cells", "value": "~50", "unit": "nM"}, {"measurement": "Specific binding of ^125I-α2M*", "setting": "acidic pH binding sites [2]", "value": "completely blocked"}, {"measurement": "^125I-α2M* binding", "setting": "LRP-1 [3]", "value": "did not have a significant effect"}, {"measurement": "^125I-α2M* binding", "setting": "LRP-1 [4]", "value": "did not have a significant effect"}, {"measurement": "^125I-TGF-β1 binding to purified TβR-V", "setting": "[5]; 0.1 nM 125I-TGF-β1, […] 0° C.", "value": "did not have a significant effect"}, {"measurement": "^125I-IGFBP-3 binding to purified TβR-V", "setting": "[5]; 10 nM 125I-IGFBP-3, […] 0° C.", "value": "did not have a significant effect"}, {"measurement": "Specific binding of ^125I-α2M*", "setting": "acidic pH binding sites [6]", "value": "completely blocked"}]}, {"molecule": "(Q^3A^4Y^15L^16) IGF-I: an IGF-I analog which has a low affinity for IGFBP-3 (protein, UniProt P05019 49-118, looked up, variant E3Q T4A Q15Y F16L, Insulin-like growth factor I) Insulin-like growth factor 1: GPQALCGAELVDALYLVCGDRGFYFNKPTGYGSSSRRAPQTGIVDECCFRSCDLRRLEMYCAPLKPAKSA", "values": [{"measurement": "Blocking of IGFBP-3-induced specific dephosphorylation of IRS-2 by growth factors/cytokines", "setting": "IRS-2; IGFBP-3 1 μg/ml […] then factor 10 nM (TGF-β1 20 pM) 0.5 hr", "value": "blocked"}, {"measurement": "Blocking of IGFBP-3-induced growth inhibition", "setting": "Mv1Lu cells", "value": "completely blocked"}]}, {"molecule": "IGFBP-1: IGFBP known not to bind to the IGFBP-3 receptor (protein) APWQCAPCSAEKLALCPPVSASCSEVTRSAGCGCCPMCALPLGAACGVATARCARGLSCRALPGEQQPLHALTRGQGACVQESDASAPHAAEAGSPESPESTEITEEELLDNFHLMAPSEEDHSILWDAISTYDGSKALHVTNIKKWKEPCRIELYRVVESLAKAQETSGEEISKFYLPNCNKNGFYHSRQCETSMDGEAGLCWCVYPWNGKRIPGSPEIRGDPNCQIYFNVQN", "values": [{"measurement": "Induction of specific dephosphorylation (mobility change) of 32P-labeled IRS-2", "setting": "IRS-2", "value": "did not induce"}]}, {"molecule": "IGFBP-2: IGFBP known not to bind to the IGFBP-3 receptor (protein, UniProt P18065 36-325, looked up) Insulin-like growth …: AEVLFRCPPCTPERLAACGPPPVAPPAAVAAVAGGARMPCAELVREPGCGCCSVCARLEGEACGVYTPRCGQGLRCYPHPGSELPLQALVMGEGTCEKRRDAEYGASPEQVADNGDDHSEGGLVENHVDSTMNMLGGGGSAGRKPLKSGMKELAVFREKVTEQHRQMGKGGKHHLGLEEPKKLRPPPARTPCQQELDQVLERISTMRLPDERGPLEHLYSLHIPNCDKHGLYNLKQCKMSLNGQRGECWCVNPNTGKLIQGAPTIRGDPECHLFYNEQQEARGVHTQRMQ", "values": [{"measurement": "Induction of specific dephosphorylation (mobility change) of 32P-labeled IRS-2", "setting": "IRS-2", "value": "did not induce"}]}]}
